Laboratory results reported in US20190233493A1 (Sanofi, published 2019).
*1 amine or outer side, *2 acyl side, *3 side chain or, on linkers, in order; H or OH if unused. Side-chain parts run from the residue outwards. [ ]: non-standard residue; d: D form. The star is where a group is joined. PEG12 = NCCOCCOCCOCCOCCOCCOCCOCCOCCOCCOCCOCCOCCC(=O)O; γGlu = O=C(O)[C@H](CCC(=O)[*:2])N[*:1]; 1Nal = N[C@@H](Cc1cccc2ccccc12)C(=O)O; Stearoyl = CCCCCCCCCCCCCCCCCC(=O)*; Palmitoyl = CCCCCCCCCCCCCCCC(=O)*; Nle = CCCC[C@H](N)C(=O)O; Aib = CC(C)(N)C(=O)O

T1: RXFP1 receptor (UniProt Q9HBX9 1-757, limits assumed)
T1 sequence (looked up): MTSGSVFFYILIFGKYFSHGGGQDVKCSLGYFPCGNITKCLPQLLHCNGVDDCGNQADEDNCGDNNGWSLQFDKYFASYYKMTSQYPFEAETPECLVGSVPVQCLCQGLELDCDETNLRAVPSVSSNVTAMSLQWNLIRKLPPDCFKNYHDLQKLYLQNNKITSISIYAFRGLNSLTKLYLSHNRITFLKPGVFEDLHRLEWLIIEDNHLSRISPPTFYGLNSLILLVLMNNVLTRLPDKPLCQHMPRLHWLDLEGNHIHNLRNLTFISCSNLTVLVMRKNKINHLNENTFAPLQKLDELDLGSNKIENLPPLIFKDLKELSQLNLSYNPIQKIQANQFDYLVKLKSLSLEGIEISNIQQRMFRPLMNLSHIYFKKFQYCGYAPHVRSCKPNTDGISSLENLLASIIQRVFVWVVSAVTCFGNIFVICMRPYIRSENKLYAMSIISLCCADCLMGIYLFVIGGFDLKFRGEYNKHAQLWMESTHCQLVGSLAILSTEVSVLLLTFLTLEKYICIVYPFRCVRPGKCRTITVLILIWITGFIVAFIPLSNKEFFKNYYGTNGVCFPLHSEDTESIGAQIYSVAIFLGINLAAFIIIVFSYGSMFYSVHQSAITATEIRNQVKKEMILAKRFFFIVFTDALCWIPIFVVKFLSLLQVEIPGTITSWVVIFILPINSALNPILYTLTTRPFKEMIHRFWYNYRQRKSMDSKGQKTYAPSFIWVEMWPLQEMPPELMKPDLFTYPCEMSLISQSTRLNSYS


biological target: T1, RXFP1 receptor; experiment: cell-based or functional assay

| Binder | EC50 (nM), OVCAR 5 cells (cAMP) [nM] | EMax, OVCAR 5 cells (cAMP) [%] |
| --- | --- | --- |
| Ac-LEGREKVRAQI[Aib][Aib]EG[Nle]STWS[Aib]RKK([γGlu-Stearoyl])-NH2 (SMILES CCCCCCCCCCCCCCCCCC(=O)N[C@@H](CCC(=O)NCCCC[C@H](NC(=O)[C@H](CCCCN)NC(=O)[C@H](CCCNC(=N)N)NC(=O)C(C)(C)NC(=O)[C@H](CO)NC(=O)[C@H](Cc1c[nH]c2ccccc12)NC(=O)[C@@H](NC(=O)[C@H](CO)NC(=O)[C@H](CCCC)NC(=O)CNC(=O)[C@H](CCC(=O)O)NC(=O)C(C)(C)NC(=O)C(C)(C)NC(=O)[C@@H](NC(=O)[C@H](CCC(N)=O)NC(=O)[C@H](C)NC(=O)[C@H](CCCNC(=N)N)NC(=O)[C@@H](NC(=O)[C@H](CCCCN)NC(=O)[C@H](CCC(=O)O)NC(=O)[C@H](CCCNC(=N)N)NC(=O)CNC(=O)[C@H](CCC(=O)O)NC(=O)[C@H](CC(C)C)NC(C)=O)C(C)C)[C@@H](C)CC)[C@@H](C)O)C(N)=O)C(=O)O) [peptide of SEQ ID NO: 3] | 28.5 | 93 |
| Ac-LEGREKVRAK(Ac)I[Aib][Aib]EG[Nle]STWS[Aib]RKK(Ac)[PEG12]K([γGlu-γGlu-γGlu-Palmitoyl])-NH2 (SMILES CCCCCCCCCCCCCCCC(=O)N[C@@H](CCC(=O)N[C@@H](CCC(=O)N[C@@H](CCC(=O)NCCCC[C@H](NC(=O)CCOCCOCCOCCOCCOCCOCCOCCOCCOCCOCCOCCOCCNC(=O)[C@H](CCCCNC(C)=O)NC(=O)[C@H](CCCCN)NC(=O)[C@H](CCCNC(=N)N)NC(=O)C(C)(C)NC(=O)[C@H](CO)NC(=O)[C@H](Cc1c[nH]c2ccccc12)NC(=O)[C@@H](NC(=O)[C@H](CO)NC(=O)[C@H](CCCC)NC(=O)CNC(=O)[C@H](CCC(=O)O)NC(=O)C(C)(C)NC(=O)C(C)(C)NC(=O)[C@@H](NC(=O)[C@H](CCCCNC(C)=O)NC(=O)[C@H](C)NC(=O)[C@H](CCCNC(=N)N)NC(=O)[C@@H](NC(=O)[C@H](CCCCN)NC(=O)[C@H](CCC(=O)O)NC(=O)[C@H](CCCNC(=N)N)NC(=O)CNC(=O)[C@H](CCC(=O)O)NC(=O)[C@H](CC(C)C)NC(C)=O)C(C)C)[C@@H](C)CC)[C@@H](C)O)C(N)=O)C(=O)O)C(=O)O)C(=O)O) [peptide of SEQ ID NO: 26] | 0.57 | 85 |
| Ac-LEGREKVR[Aib]QI[Aib][Aib]EG[Nle]STWS[Aib]RKK(Ac)[PEG12]K([γGlu-γGlu-γGlu-Palmitoyl])-NH2 (SMILES CCCCCCCCCCCCCCCC(=O)N[C@@H](CCC(=O)N[C@@H](CCC(=O)N[C@@H](CCC(=O)NCCCC[C@H](NC(=O)CCOCCOCCOCCOCCOCCOCCOCCOCCOCCOCCOCCOCCNC(=O)[C@H](CCCCNC(C)=O)NC(=O)[C@H](CCCCN)NC(=O)[C@H](CCCNC(=N)N)NC(=O)C(C)(C)NC(=O)[C@H](CO)NC(=O)[C@H](Cc1c[nH]c2ccccc12)NC(=O)[C@@H](NC(=O)[C@H](CO)NC(=O)[C@H](CCCC)NC(=O)CNC(=O)[C@H](CCC(=O)O)NC(=O)C(C)(C)NC(=O)C(C)(C)NC(=O)[C@@H](NC(=O)[C@H](CCC(N)=O)NC(=O)C(C)(C)NC(=O)[C@H](CCCNC(=N)N)NC(=O)[C@@H](NC(=O)[C@H](CCCCN)NC(=O)[C@H](CCC(=O)O)NC(=O)[C@H](CCCNC(=N)N)NC(=O)CNC(=O)[C@H](CCC(=O)O)NC(=O)[C@H](CC(C)C)NC(C)=O)C(C)C)[C@@H](C)CC)[C@@H](C)O)C(N)=O)C(=O)O)C(=O)O)C(=O)O) [peptide of SEQ ID NO: 28] | 4.64 | 78 |
| Ac-LEGREKVRAK(Ac)I[Aib][Aib]EGMSTWS[Aib]RK[PEG12]K([γGlu-γGlu-γGlu-Palmitoyl])-NH2 (SMILES CCCCCCCCCCCCCCCC(=O)N[C@@H](CCC(=O)N[C@@H](CCC(=O)N[C@@H](CCC(=O)NCCCC[C@H](NC(=O)CCOCCOCCOCCOCCOCCOCCOCCOCCOCCOCCOCCOCCNC(=O)[C@H](CCCCN)NC(=O)[C@H](CCCNC(=N)N)NC(=O)C(C)(C)NC(=O)[C@H](CO)NC(=O)[C@H](Cc1c[nH]c2ccccc12)NC(=O)[C@@H](NC(=O)[C@H](CO)NC(=O)[C@H](CCSC)NC(=O)CNC(=O)[C@H](CCC(=O)O)NC(=O)C(C)(C)NC(=O)C(C)(C)NC(=O)[C@@H](NC(=O)[C@H](CCCCNC(C)=O)NC(=O)[C@H](C)NC(=O)[C@H](CCCNC(=N)N)NC(=O)[C@@H](NC(=O)[C@H](CCCCN)NC(=O)[C@H](CCC(=O)O)NC(=O)[C@H](CCCNC(=N)N)NC(=O)CNC(=O)[C@H](CCC(=O)O)NC(=O)[C@H](CC(C)C)NC(C)=O)C(C)C)[C@@H](C)CC)[C@@H](C)O)C(N)=O)C(=O)O)C(=O)O)C(=O)O) [peptide of SEQ ID NO: 25] | 1.21 | 95 |
| Ac-LEGREKVRAQI[Aib][Aib]EG[Nle]STWS[Aib]RK[PEG12]K([γGlu-γGlu-γGlu-Palmitoyl])-NH2 (SMILES CCCCCCCCCCCCCCCC(=O)N[C@@H](CCC(=O)N[C@@H](CCC(=O)N[C@@H](CCC(=O)NCCCC[C@H](NC(=O)CCOCCOCCOCCOCCOCCOCCOCCOCCOCCOCCOCCOCCNC(=O)[C@H](CCCCN)NC(=O)[C@H](CCCNC(=N)N)NC(=O)C(C)(C)NC(=O)[C@H](CO)NC(=O)[C@H](Cc1c[nH]c2ccccc12)NC(=O)[C@@H](NC(=O)[C@H](CO)NC(=O)[C@H](CCCC)NC(=O)CNC(=O)[C@H](CCC(=O)O)NC(=O)C(C)(C)NC(=O)C(C)(C)NC(=O)[C@@H](NC(=O)[C@H](CCC(N)=O)NC(=O)[C@H](C)NC(=O)[C@H](CCCNC(=N)N)NC(=O)[C@@H](NC(=O)[C@H](CCCCN)NC(=O)[C@H](CCC(=O)O)NC(=O)[C@H](CCCNC(=N)N)NC(=O)CNC(=O)[C@H](CCC(=O)O)NC(=O)[C@H](CC(C)C)NC(C)=O)C(C)C)[C@@H](C)CC)[C@@H](C)O)C(N)=O)C(=O)O)C(=O)O)C(=O)O) [peptide of SEQ ID NO: 24] | 3.2 | 74 |
| Ac-LEGREKVRAK(Ac)I[Aib][Aib]EG[Nle]ST[1Nal]S[Aib]RK[PEG12]K([γGlu-γGlu-γGlu-Palmitoyl])-NH2 (SMILES CCCCCCCCCCCCCCCC(=O)N[C@@H](CCC(=O)N[C@@H](CCC(=O)N[C@@H](CCC(=O)NCCCC[C@H](NC(=O)CCOCCOCCOCCOCCOCCOCCOCCOCCOCCOCCOCCOCCNC(=O)[C@H](CCCCN)NC(=O)[C@H](CCCNC(=N)N)NC(=O)C(C)(C)NC(=O)[C@H](CO)NC(=O)[C@H](Cc1cccc2ccccc12)NC(=O)[C@@H](NC(=O)[C@H](CO)NC(=O)[C@H](CCCC)NC(=O)CNC(=O)[C@H](CCC(=O)O)NC(=O)C(C)(C)NC(=O)C(C)(C)NC(=O)[C@@H](NC(=O)[C@H](CCCCNC(C)=O)NC(=O)[C@H](C)NC(=O)[C@H](CCCNC(=N)N)NC(=O)[C@@H](NC(=O)[C@H](CCCCN)NC(=O)[C@H](CCC(=O)O)NC(=O)[C@H](CCCNC(=N)N)NC(=O)CNC(=O)[C@H](CCC(=O)O)NC(=O)[C@H](CC(C)C)NC(C)=O)C(C)C)[C@@H](C)CC)[C@@H](C)O)C(N)=O)C(=O)O)C(=O)O)C(=O)O) [peptide of SEQ ID NO: 29] | 2.5 | 78 |
| Ac-LEGREKVR[Aib]K(Ac)I[Aib][Aib]EG[Nle]STWS[Aib]RKK(Ac)[PEG12]K([γGlu-γGlu-γGlu-Palmitoyl])-NH2 (SMILES CCCCCCCCCCCCCCCC(=O)N[C@@H](CCC(=O)N[C@@H](CCC(=O)N[C@@H](CCC(=O)NCCCC[C@H](NC(=O)CCOCCOCCOCCOCCOCCOCCOCCOCCOCCOCCOCCOCCNC(=O)[C@H](CCCCNC(C)=O)NC(=O)[C@H](CCCCN)NC(=O)[C@H](CCCNC(=N)N)NC(=O)C(C)(C)NC(=O)[C@H](CO)NC(=O)[C@H](Cc1c[nH]c2ccccc12)NC(=O)[C@@H](NC(=O)[C@H](CO)NC(=O)[C@H](CCCC)NC(=O)CNC(=O)[C@H](CCC(=O)O)NC(=O)C(C)(C)NC(=O)C(C)(C)NC(=O)[C@@H](NC(=O)[C@H](CCCCNC(C)=O)NC(=O)C(C)(C)NC(=O)[C@H](CCCNC(=N)N)NC(=O)[C@@H](NC(=O)[C@H](CCCCN)NC(=O)[C@H](CCC(=O)O)NC(=O)[C@H](CCCNC(=N)N)NC(=O)CNC(=O)[C@H](CCC(=O)O)NC(=O)[C@H](CC(C)C)NC(C)=O)C(C)C)[C@@H](C)CC)[C@@H](C)O)C(N)=O)C(=O)O)C(=O)O)C(=O)O) [peptide of SEQ ID NO: 27] | 0.3 | 86 |
